Reference: US20150017651A1 (University of Texas, published 2015)

Molecular target: T1, flag-tagged Gli1S84A (human, UniProt P08151 1-1106)
T1 construct: also called flag-Gli1S84A; not shown: flag tag from vector p3flag-CMV10
T1 sequence (looked up): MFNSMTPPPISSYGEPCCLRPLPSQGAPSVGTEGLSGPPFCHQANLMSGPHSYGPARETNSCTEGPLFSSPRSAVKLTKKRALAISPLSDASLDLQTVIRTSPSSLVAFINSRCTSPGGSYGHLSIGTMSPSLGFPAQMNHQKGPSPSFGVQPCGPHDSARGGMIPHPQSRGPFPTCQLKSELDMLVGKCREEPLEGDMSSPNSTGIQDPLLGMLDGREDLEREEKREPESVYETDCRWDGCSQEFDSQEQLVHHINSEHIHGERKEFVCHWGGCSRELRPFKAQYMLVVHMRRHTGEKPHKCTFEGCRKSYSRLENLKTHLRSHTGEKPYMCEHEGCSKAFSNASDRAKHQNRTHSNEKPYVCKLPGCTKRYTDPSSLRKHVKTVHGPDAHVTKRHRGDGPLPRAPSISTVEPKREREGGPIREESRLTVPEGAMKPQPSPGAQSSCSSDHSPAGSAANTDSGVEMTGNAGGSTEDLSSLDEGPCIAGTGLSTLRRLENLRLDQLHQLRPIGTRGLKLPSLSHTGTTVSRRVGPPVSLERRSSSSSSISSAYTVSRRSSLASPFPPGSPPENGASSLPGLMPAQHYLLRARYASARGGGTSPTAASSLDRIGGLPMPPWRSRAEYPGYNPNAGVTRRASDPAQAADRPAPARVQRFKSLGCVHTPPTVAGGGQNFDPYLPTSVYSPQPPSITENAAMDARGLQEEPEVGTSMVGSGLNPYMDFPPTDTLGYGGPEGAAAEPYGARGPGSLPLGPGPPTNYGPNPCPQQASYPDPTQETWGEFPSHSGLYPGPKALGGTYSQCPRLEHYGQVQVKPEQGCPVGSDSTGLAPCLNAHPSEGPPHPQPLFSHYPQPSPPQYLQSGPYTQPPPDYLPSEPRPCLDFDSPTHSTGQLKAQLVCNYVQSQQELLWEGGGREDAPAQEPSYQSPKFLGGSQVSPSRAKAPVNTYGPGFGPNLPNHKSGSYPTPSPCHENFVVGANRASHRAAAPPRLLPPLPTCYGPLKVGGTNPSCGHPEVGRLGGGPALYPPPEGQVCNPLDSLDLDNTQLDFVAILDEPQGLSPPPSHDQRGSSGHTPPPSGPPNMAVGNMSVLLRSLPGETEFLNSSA
Assay: IP-Western, flag-tagged Gli1S84A transfected into BE3 cells
Procedure: FIGS. 13A-13K. related to FIG. 5. […] FIG. 13A. Luciferase assay of Gli reporter in the stable clones treated by TNFα alone (5 ng/mL) or TNFα plus rapamycin (100 nM). Error bars represent SD (n=3). FIG. 13B. Gli1 immunofluorescence staining in several BE3 stable clones with TNFα treatment. Scale bar=100 μm for original picture and 25 μm for inset. FIG. 13C. The regulation of p-Gli1 by TNFα alone or together with rapamycin (10, 50, and 100 nM) in the BE3 stable clone. FIG. 13D. MTT assay of the various Gli1 stable clones. All cells were counted, and then 3,000 cells were seeded in each well of a 96-well plate. Error bars represent SD (n=3). FIG. 13E. Soft-agar assay of the various Gli1 stable clones. All cells were counted, and then 1,000 cells were mixed with agarose for each well of a 24-well plate. Left, representative microscopic images. Right, quantitation of colony formation. Error bars represent SD (n=3). FIG. 13F. Invasion assay of the various Gli1 stable clones. All cells were counted, and then 1,000 cells were seeded on matrigel in transwells. Left, representative microscopic images from the bottom side of transwell membranes. Right, quantitation of invasive cells. Error bars represent SD (n=3). FIGS. 13G-13I. The assays of MTT (G), soft agar (H), and invasion (I) using the BE3 stable clones treated with TNFα.

B1: SuFu (other, human, UniProt Q9UMX1 1-484, looked up)
chain: MAELRPSGAPGPTAPPAPGPTAPPAFASLFPPGLHAIYGECRRLYPDQPNPLQVTAIVKYWLGGPDPLDYVSMYRNVGSPSANIPEHWHYISFGLSDLYGDNRVHEFTGTDGPSGFGFELTFRLKRETGESAPPTWPAELMQGLARYVFQSENTFCSGDHVSWHSPLDNSESRIQHMLLTEDPQMQPVQTPFGVVTFLQIVGVCTEELHSAQQWNGQGILELLRTVPIAGGPWLITDMRRGETIFEIDPHLQERVDKGIETDGSNLSGVSAKCAWDDLSRPPEDDEDSRSICIGTQPRRLSGKDTEQIRETLRRGLEINSKPVLPPINPQRQNGLAHDRAPSRKDSLESDSSTAIIPHELIRTRQLESVHLKFNQESGALIPLCLRGRLLHGRHFTYKSITGDMAITFVSTGVEGAFATEEHPYAAHGPWLQILLTEEFVEKMLEDLEDLTSPEEFKLPKEYSWPEKKLKVSILPDVVFDSPLH
notes: also called suppressor of fused
- binding result: binds
